Measurements published in US10105442B2, “Treatment of diabetes type 1 using GLP-1 and anti-IL-21” (Novo Nordisk A/S, priority 2014, dated 2018).

Biological target: T1, mIL-21 (Mus musculus, UniProt Q9ES17)
T1 construct: purchased
Assay: Inhibition of IL-21-driven B cell proliferation (Assay IV)
Type: cell-based
Details: mouse B cells stimulated with anti-IgM, anti-CD40 and rmIL-21, 72 h, 3H-thymidine incorporation
Description: Assay (IV): Inhibition of IL-21-Driven B Cell Proliferation.
As a functionality test, anti-mIL-21 is tested for its ability to neutralize mIL-21-driven B cell proliferation. Equivalent assays may be performed for testing of anti-hIL-21 antibodies, such as Example 10 of WO2013/164021 that utilizes PBMC's isolated from healthy human volunteers. Further information on ability to inhibit B-cell maturation may be obtained as described in Example 6 and 12 of WO2012/098113.
Mouse B cells are purified from spleens harvested from 6-8 weeks old wild-type C57BL/6 mice. Single cell splenocytes are prepared by forcing the organ through a 70 μm cell strainer into PBS. B cells were purified by anti-B220 positive selection by magnetic beads, using magnetic beads and an AutoMACS cell separator (Miltenyi Biotec) according to manufacturer's protocol.
Cells are stimulated in vitro with: a) soluble anti-IgM (1 μg/mL), b) soluble anti-CD40 (1 μg/mL) and c) mIL-21 (25, 50, 100 ng/mL). 10^5 purified B cells were added per well in a 96-well-plate and stimulated for 72 h at 37° C. with soluble IgM (1 μg/mL), soluble anti-CD40 IgM (1 μg/mL) and rmIL-21 (100 ng/mL) in the presence of an anti-IL-21 antibody or an isotype control antibody. For the last 18 h of incubation 3H-thymidine is added to each well and thymidine-incorporation (proliferation) was measured on a Top Counter liquid scintilator (Perkin Elmer)

B1: Anti-IL-21: Mouse surrogate anti-IL-21 antibody, mIgG1/kappa isotype, VL SEQ ID NO:26 and VH SEQ ID NO:27, raised against recombinant mouse IL-21 (antibody, V domains shown)
VH: MNFGPSLIFLVLILKGVQCEVQLVESGGGLVKPGGSLKLSCAASGFTFNRYSMSWVRQSPEKRLEWVAEISVGGSYTQYVDIVTGRFTISRDNAKNTLYLEMSSLRSEDTAMYYCARLYYSGSGDSYYYAMDYWGQGTSVTVSS
VL: MDFQVQIFSFLLISASVILSRGQTVLIQSPAIMSASPGEKVTMTCSASSSVSYMHWYQQKSGTSPKRWIYDTSKLASGVPARFSGSGSGTSYSLTISSMEAEDAATYYCQQWNSNPPTFGGGTKLEMK
Inhibition of mIL-21-driven B-cell proliferation (in words): capable of inhibiting B-cell proliferation in a concentration dependent manner
